Patent publication US20260151494A1 (ARO BIOTHERAPEUTICS, published 2026)

Assays:
[1] = molecular target: T1, apical domain of human CD71 (human, UniProt P02786 189-383, limits assumed); assay: primary ELISA; also: test concentration or dose not given here
T1 construct: domain: apical domain; Screen 4 panned on human apical domains, the ELISA text says only 'apical domain'

[2] = molecular target: T2, human CD71 extracellular domain (human, UniProt P02786 89-760, biotinylated); assay: primary ELISA; also: test concentration or dose not given here
T2 construct: also called hCD71; CD71-ECD

[3] = molecular target: T1, apical domain of human CD71; assay: primary ELISA, RLU over HSA
[4] = molecular target: T2, human CD71 extracellular domain; assay: primary ELISA, RLU over HSA

T1 sequence (P02786 189-383 limits assumed): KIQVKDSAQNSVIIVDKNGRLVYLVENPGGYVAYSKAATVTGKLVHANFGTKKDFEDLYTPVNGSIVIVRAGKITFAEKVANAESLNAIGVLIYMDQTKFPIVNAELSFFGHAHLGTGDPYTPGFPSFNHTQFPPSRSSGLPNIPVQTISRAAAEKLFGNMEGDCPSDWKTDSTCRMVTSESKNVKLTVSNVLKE
T2 sequence (P02786 89-760): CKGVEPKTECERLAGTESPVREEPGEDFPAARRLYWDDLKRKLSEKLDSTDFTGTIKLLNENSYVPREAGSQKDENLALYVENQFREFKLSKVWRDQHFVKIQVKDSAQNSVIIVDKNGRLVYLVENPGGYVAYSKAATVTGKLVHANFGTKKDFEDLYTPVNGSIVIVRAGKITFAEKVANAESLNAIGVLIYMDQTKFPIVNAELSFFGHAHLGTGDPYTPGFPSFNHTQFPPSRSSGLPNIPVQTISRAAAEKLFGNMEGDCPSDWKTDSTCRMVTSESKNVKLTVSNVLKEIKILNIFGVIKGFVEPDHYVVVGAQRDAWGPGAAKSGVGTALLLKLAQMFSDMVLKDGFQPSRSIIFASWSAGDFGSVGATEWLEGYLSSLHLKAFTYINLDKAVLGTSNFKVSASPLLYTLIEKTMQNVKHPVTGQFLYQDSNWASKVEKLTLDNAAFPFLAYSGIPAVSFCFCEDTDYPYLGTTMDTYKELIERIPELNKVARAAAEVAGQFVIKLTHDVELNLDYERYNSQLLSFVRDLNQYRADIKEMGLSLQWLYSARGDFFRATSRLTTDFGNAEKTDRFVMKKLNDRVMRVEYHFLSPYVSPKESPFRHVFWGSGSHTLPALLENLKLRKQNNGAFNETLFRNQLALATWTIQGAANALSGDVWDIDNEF

| Binder | RLU [1] [RLU] | RLU [2] [RLU] | Apical domain:HSA [3] | hCD71:HSA [4] |
| --- | --- | --- | --- | --- |
| CD71-binding FN3 domain of SEQ ID NO: 523 (designed binder) MLPAPKNLVVSRVTEDSARLSWTAPDAAFDSFFIGYLEPQPPGEAIDLLVPGSERSYDLTGLKPGTEYNVTIQGVKGGFPSEPLTAEFTT | 4.31e+06 | 4.19e+06 | 300 | 292 |
| CD71-binding FN3 domain of SEQ ID NO: 524 (designed binder) MLPAPKNLVVSRVTEDSARLSWTAPDAAFDSFFIGYLEPQPPGEAIHLWVPGSERSYDLTGLKPGTEYNVTIQGVKGGFPSMPLSAIFTT | 3.95e+06 | 3.22e+06 | 232 | 190 |
| CD71-binding FN3 domain of SEQ ID NO: 525 (designed binder) MLPAPKNLVVSRVTEDSARLSWTAPDAAFDSFFIGYLEPQPPGEAIALYVPGSERSYDLTGLKPGTEYNVTIQGVKGGFPSEPLVATFTT | 5.93e+06 | 6.02e+06 | 48 | 49 |
| CD71-binding FN3 domain of SEQ ID NO: 526 (designed binder) MLPAPKNLVVSRVTEDSARLSWTAPDAAFDSFFIGYLEPQPPGEAISLIVPGSERSYDLTGLKPGTEYNVTIQGVKGGFPSDPLIAIFTT | 5.37e+06 | 3.7e+06 | 721 | 497 |
| CD71-binding FN3 domain of SEQ ID NO: 527 (designed binder) MLPAPKNLVVSRVTEDSARLSWTAPDAAFDSFFIGYLEPQPPGEAIHLYVPGSERSYDLTGLKPGTEYNVTIQGVKGGFPSEPLIANFTT | 6.4e+06 | 6.59e+06 | 15 | 15 |
| CD71-binding FN3 domain of SEQ ID NO: 528 (designed binder) MLPAPKNLVVSRVTEDSARLSWTAPDAAFDSFFIGYLEPQPPGEAITLLVPGSERSYDLTGLKPGTEYNVTIQGVKGGFPSIPLIAIFTT | 5.58e+06 | 5.18e+06 | 182 | 169 |
| CD71-binding FN3 domain of SEQ ID NO: 529 (designed binder) MLPAPKNLVVSRVTEDSARLSWTAPDAAFDSFFIGYLEPQPPGEAIDLYVPGSERSYDLTGLKPGTEYNVTIQGVKGGFPSLPLQAHFTT | 3.24e+06 | 4.13e+06 | 366 | 466 |
| CD71-binding FN3 domain of SEQ ID NO: 530 (designed binder) MLPAPKNLVVSRVTEDSARLSWTAPDAAFDSFFIGYLEPQPPGEAIDLLVPGSERSYDLTGLKPGTEYNVTIQGVKGGFPSEPLFAHFTT | 4.48e+06 | 4.61e+06 | 281 | 289 |
| CD71-binding FN3 domain of SEQ ID NO: 533 (designed binder) MLPAPKNLVVSRVTEDSARLSWTAPDAAFDSFFIGYLEPQPPGEAINLFVPGSERSYDLTGLKPGTEYNVTIQGVKGGFPSMPLSAIFTT | 5.25e+06 | 3.18e+06 | 241 | 146 |
| CD71-binding FN3 domain of SEQ ID NO: 534 (designed binder) MLPAPKNLVVSRVTEDSARLSWTAPDAAFDSFFIGYLEPQPPGEAIHLLVPGSERSYDLTGLKPGTEYNVTIQGVKGGFPSGPLQASFTT | 5.76e+06 | 5.2e+06 | 207 | 187 |
| CD71-binding FN3 domain of SEQ ID NO: 535 (designed binder) MLPAPKNLVVSRVTEDSARLSWTAPDAAFDSFFIGYLEPQPPGEAIHLQVPGSERSYDLTGLKPGTEYNVTIQGVKGGFPSDPLVAKFTT | 3.38e+06 | 4.29e+06 | 285 | 362 |
| CD71-binding FN3 domain of SEQ ID NO: 538 (designed binder) MLPAPKNLVVSRVTEDSARLSWTAPDAAFDSFFIGYLEPQPPGEAIDLYVPGSERSYDLTGLKPGTEYNVTIQGVKGGFPSHPLVAVFTT | 4.93e+06 | 5.57e+06 | 164 | 185 |
| CD71-binding FN3 domain of SEQ ID NO: 539 (designed binder) MLPAPKNLVVSRVTEDSARLSWTAPDAAFDSFFIGYLEPQPPGEAIHLFVPGSERSYDLTGLKPGTEYNVTIQGVKGGFPSDPLHAAFTT | 6.08e+06 | 4.94e+06 | 205 | 167 |
| CD71-binding FN3 domain of SEQ ID NO: 541 (designed binder) MLPAPKNLVVSRVTEDSARLSWTAPDAAFDSFFIGYLEPQPPGEAIDLWVPGSERSYDLTGLKPGTEYNVTIQGVKGGFPSMPLDAYFTT | 3.42e+06 | 1.79e+06 | 140 | 73 |
| CD71-binding FN3 domain of SEQ ID NO: 542 (designed binder) MLPAPKNLVVSRVTEDSARLSWTAPDAAFDSFFIGYLEPQPPGEAIELFVPGSERSYDLTGLKPGTEYNVTIQGVKGGFPSMPLSAIFTT | 3e+06 | 2.13e+06 | 237 | 169 |
| CD71-binding FN3 domain of SEQ ID NO: 543 (designed binder) MLPAPKNLVVSRVTEDSARLSWTAPDAAFDSFFIGYLEPQPPGEAISLYVPGSERSYDLTGLKPGTEYNVTIQGVKGGFPSIPLVAVFTT | 4.65e+06 | 5.29e+06 | 182 | 207 |
| CD71-binding FN3 domain of SEQ ID NO: 544 (designed binder) MLPAPKNLVVSRVTEDSARLSWTAPDAAFDSFFIGYLEPQPPGEAIALLVPGSERSYDLTGLKPGTEYNVTIQGVKGGFPSHPLSASFTT | 4.07e+06 | 4.04e+06 | 243 | 241 |
| CD71-binding FN3 domain of SEQ ID NO: 545 (designed binder) MLPAPKNLVVSRVTEDSARLSWTAPDAAFDSFFIGYLEPQPPGEAISLVVPGSERSYDLTGLKPGTEYNVTIQGVKGGFPSNPLIATFTT | 4.22e+06 | 4.22e+06 | 327 | 327 |
| CD71-binding FN3 domain of SEQ ID NO: 455 (designed binder) MLPAPKNLVVSRVTEDSARLSWTAPDAAFDSFTISYPEEAKHGEAIVLTVPGSERSYDLTGLKPGTEYGVPINGVKGGVSSLPLSAIFTT | 4.83e+06 | 1.56e+06 | 171 | 55 |
| CD71-binding FN3 domain of SEQ ID NO: 458 (designed binder) MLPAPKNLVVSRVTEDSARLSWTAPDAAFDSFLDLLPSNWDIAGEAIVLTVPGSERSYDLTGLKPGTEYHVNILGVKGGKESLPLVANFTT | 4.64e+06 | 3.44e+06 | 69 | 51 |
| CD71-binding FN3 domain of SEQ ID NO: 463 (designed binder) MLPAPKNLVVSRVTEDSARLSWTAPDAAFDSFLILYIEQDHRGEAIVLTVPGSERSYDLTGLKPGTEYWVHITGVKGGYYSAPLSAIFTT | 5.51e+06 | 5.62e+06 | 89 | 91 |
| CD71-binding FN3 domain of SEQ ID NO: 466 (designed binder) MLPAPKNLVVSRVTEDSARLSWTAPDAAFDSFYIAYAEPRPDGEAIWLLVPGSERSYDLTGLKPGTEYSVLIHGVKGGLLSSPLSADFTT | 4.3e+06 | 1.08e+06 | 279 | 70 |
| CD71-binding FN3 domain of SEQ ID NO: 540 (designed binder) MLPAPKNLVVSRVTEDSARLSWTAPDAAFDSFYIAYAEPRPDGEAIILVVPGSERSYDLTGLKPGTEYSVLIHGVKGGLLSSPLDAGFTT | 5.85e+06 | 3.79e+06 | 306 | 198 |
| CD71-binding FN3 domain of SEQ ID NO: 468 (designed binder) MLPAPKNLVVSRVTEDSARLSWTAPDAAFDSFLIQYDEEGVWGEAIVLTVPGSERSYDLTGLKPGTEYSVGIGGVKGGWSSVPLSAIFTT | 3.58e+06 | 1.05e+06 | 24 | 71 |
| CD71-binding FN3 domain of SEQ ID NO: 471 (designed binder) MLPAPKNLVVSRVTEDSARLSWTAPDAAFDSFTIWYYESPTGGEAIVLTVPGSERSYDLTGLKPGTEYMVFIQGVKGGCFSTPLYAIFTT | 3.88e+06 | 1.65e+06 | 98 | 42 |
| CD71-binding FN3 domain of SEQ ID NO: 477 (designed binder) MLPAPKNLVVSRVTEDSARLSWTAPDAAFDSFEIAYFETCRTGEAIVLTVPGSERSYDLTGLKPGTEYGVSIYGVKGGAHSGPLSAIFTT | 2.4e+06 | 1.88e+06 | 370 | 289 |
| CD71-binding FN3 domain of SEQ ID NO: 480 (designed binder) MLPAPKNLVVSRVTEDSARLSWTAPDAAFDSFEIDYAEDIREGEAIALVVPGSERSYDLTGLKPGTEYWVSIGGVKGGTWSRPLFAPFTT | 4.27e+06 | 1.66e+06 | 181 | 70 |
| CD71-binding FN3 domain of SEQ ID NO: 484 (designed binder) MLPAPKNLVVSRVTEDSARLSWTAPDAAFDSFEIAYQELSLWGEAIVLTVPGSERSYDLTGLKPGTEYYVHIGGVKGGIWSSPLSAISTT | 4.69e+06 | 1.47e+06 | 113 | 35 |
| CD71-binding FN3 domain of SEQ ID NO: 488 (designed binder) MLPAPKNLVVSRVTEDSARLSWTAPDAAFDSFIIQYGEYLRWGEAIVLTVPGSERSYDLTGLKPGTEYQVEIYGVKGGPLSKPLSAIFTT | 6.14e+06 | 3.18e+06 | 103 | 53 |
